Where only a bound is given, the exact number is not on record here.

Among the data in patent US20190040115A1 (IMMATICS BIOTECHNOLOGIES, published 2019) are peptide exchange yield values, retold here.

The assay addresses T1, HLA-A*02:01 (human).
T1 construct: captured on streptavidin plates; also called peptide-receptive MHC molecules
Put plainly: UV peptide exchange ELISA (anti-b2m); yield grade: + >10%, ++ >20%, +++ >50, ++++ >75%. An excerpt: Candidate peptides for T cell based therapies according to the present invention were further tested for their MHC binding capacity (affinity). The individual peptide-MHC complexes were produced by UV-ligand exchange, where a UV-sensitive peptide is cleaved upon UV-irradiation, and exchanged with the peptide of interest as analyzed. Only peptide candidates that can effectively bind and stabilize the peptide-receptive MHC molecules prevent dissociation of the MHC complexes. To determine the yield of the exchange reaction, an ELISA was performed based on the detection of the light chain (β2m) of stabilized MHC complexes. The assay was performed as generally described in Rodenko et al. (Rodenko et al., 2006).
96 well MAXISorp plates (NUNC) were coated over night with 2 ug/ml streptavidin in PBS at room temperature, washed 4× and blocked for 1 h at 37° C. in 2% BSA containing blocking buffer. Refolded HLA-A*02:01/MLA-001 monomers served as standards, covering the range of 15-500 ng/ml. Peptide-MHC monomers of the UV-exchange reaction were diluted 100 fold in blocking buffer. Samples were incubated for 1 h at 37° C., washed four times, incubated with 2 ug/ml HRP conjugated anti-β2m for 1 h at 37° C., washed again and detected with TMB solution that is stopped with […]. Absorption was measured at 450 nm. Candidate peptides that show a high exchange yield (preferably higher than 50%, most preferred higher than 75%) are generally preferred for a generation and production of antibodies or fragments thereof, and/or T cell receptors or fragments thereof, as they show sufficient avidity to the MHC molecules and prevent dissociation of the MHC complexes.
A general note: ELISA stands for enzyme-linked immunosorbent assay.

In the case of NMMSGISSV, the peptide exchange yield is 50 to 75%. As to GLDSGFHSV, the peptide exchange yield is over 75%. On to VLLGENVEL, for which the peptide exchange yield was 50 to 75%.

For the molecule QLYNQIIKL, the peptide exchange yield is over 75%. Turning to SAAEPTPAV, the peptide exchange yield was 50 to 75%. In the case of TLDDIMAAV, the peptide exchange yield is 50 to 75%. On to RMDEEFTKI, for which the peptide exchange yield lay within 50 to 75%. VQIGDIVTV: the peptide exchange yield is over 75%. In the case of YSDDIPHAL, the peptide exchange yield fell in the range of 20 to 50%. In the case of EVISKLYAV, the peptide exchange yield was in the range of 50 to 75%. The value for KIEDLIKYL was 50 to 75%; that for SLLPTEQPRL was 50 to 75%. For FIDPEQIQV, the peptide exchange yield was in the range of 50 to 75%. YLDKMNNNI: the peptide exchange yield is over 75%. Regarding VLFGAVITGA, the peptide exchange yield was over 75%. Consider VLYNESLQL, for which the peptide exchange yield is over 75%. Take LLKDSIVQL: the peptide exchange yield is 50 to 75%. As to TLWYVPLSL, the peptide exchange yield was over 75%.

Turning to LLEPFVHQV, the peptide exchange yield was over 75%.

On to AIHTAILTL, for which the peptide exchange yield was 20 to 50%.

Consider LLSEIEEHL, for which the peptide exchange yield is over 75%. The value for KLFTQIFGV was over 75%. The value for FLGDPPPGL was 50 to 75%. As to FLDSEVSEL, the peptide exchange yield is 50 to 75%. As for FLLEQEKTQAL, the peptide exchange yield is over 75%. As for VLMEMSYRL, the peptide exchange yield lay in the range of 50 to 75%. Turning to VLAVLGAVVAV, the peptide exchange yield lay in the range of 50 to 75%. The value for SLKSKVLSV was over 75%; that for LLYEDIPDKV was 50 to 75%; that for KMVGDVTGA was 50 to 75%.

For SLVAILHLL, the peptide exchange yield was in the range of 50 to 75%. Take KVPEIEVTV: the peptide exchange yield is over 75%. With LLPELRDWGV, the peptide exchange yield lay in the range of 50 to 75%. The value for SILDGLIHL was 50 to 75%. The value for VLNEYFHNV was over 75%. The value for ALADLQEAV was over 75%; that for ILDEPTNHL was 20 to 50%. Consider HLDEARTLL, for which the peptide exchange yield was over 75%. With ALDEPTTNL, the peptide exchange yield lay in the range of 50 to 75%. For RVAFKINSV, the peptide exchange yield lay in the range of 50 to 75%.

Take TLLHFLAEL: the peptide exchange yield was over 75%. As to ALDSGFNSV, the peptide exchange yield was over 75%. FLETNVPLL: the peptide exchange yield lay in the range of 50 to 75%. With FLPFLTTEV, the peptide exchange yield is over 75%. The value for VVVDPIQSV was 50 to 75%. As for EVVDKINQV, the peptide exchange yield fell in the range of 10 to 20%. Regarding STLHLVLRL, the peptide exchange yield was 50 to 75%. The value for ILDDVAMVL was 50 to 75%; that for ALEPIDITV was 50 to 75%; that for IAAGIFNDL was 10 to 20%. Regarding IVDNTTMQL, the peptide exchange yield lay within 50 to 75%. The value for LLEEINHFL was 50 to 75%; that for FLNEDISKL was 50 to 75%. Consider KALQFLEEV, for which the peptide exchange yield was over 75%.

On to FMYNFQLVTL, for which the peptide exchange yield lay in the range of 20 to 50%. As to FLNLFNHTL, the peptide exchange yield is over 75%.

As for VISPHGIASV, the peptide exchange yield was over 75%.

LLDPTNVFI: the peptide exchange yield was over 75%. With SLIDRTIKM, the peptide exchange yield lay within 50 to 75%. On to KLLELQELVL, for which the peptide exchange yield was over 75%. The value for KILPDLNTV was over 75%.
